# Data: patent publication US20030224992A1, “Transcription factor modulators and uses thereof” (Praecis Pharmaceuticals Inc., priority 2002, published 2003)
# Like-named read-outs stand apart in the source and are kept apart here.
# How the values were obtained:
# [1] = target: T1, Androgen receptor DNA binding domain (GST-ARDBD) (UniProt P10275 P10275:560-632); assay: FP; competition with 1 nM FAM-ARE, 50 nM GST-ARDBD; room temperature; details: tags: GST fusion; chain copies: 2
# [2] = target: T1, Androgen receptor DNA binding domain …; assay: FP; labelled probe, 1 nM with 50 nM GST-ARDBD; details: tags: GST fusion; chain copies: 2; label: 5'-FAM on top strand
# [3] = target: T1, Androgen receptor DNA binding domain …; details: tags: GST fusion; chain copies: 2
# [4] = target: T1, Androgen receptor DNA binding domain …; assay: FP; scrambled MPS control, competition with FAM-ARE; details: tags: GST fusion; chain copies: 2
# [5] = target: T1, Androgen receptor DNA binding domain …; assay: FP; scrambled control, competition with FAM-ARE; details: tags: GST fusion; chain copies: 2
# T1 sequence (P10275 560-632, one chain of several): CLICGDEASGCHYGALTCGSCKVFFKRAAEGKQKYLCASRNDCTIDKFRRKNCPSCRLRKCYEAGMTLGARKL
binder,measurement,setting,value
"ARE-MPS duplex (dsDNA, membrane permeable peptide Ac-…-NH2 conjugated at 5' of top strand) DNA 1: AGTCTGGTACAGGGTGTTCTTTTTA DNA 2: TAAAAAGAACACCCTGTACCAGACT",binding result,[1],binds
FAM-ARE duplex (dsDNA) DNA 1: AGTCTGGTACAGGGTGTTCTTTTTA DNA 2: TAAAAAGAACACCCTGTACCAGACT,binding result,[2],binds
ARE duplex (dsDNA) DNA 1: AGTCTGGTACAGGGTGTTCTTTTTA DNA 2: TAAAAAGAACACCCTGTACCAGACT,binding result,[3],binds
"AREsc-MPS scrambled (dsDNA, membrane permeable peptide Ac-…-NH2 conjugate) DNA 1: AGTCTACGAGTGGGGTTCTTTTTTA DNA 2: TAAAAAAGAACCCCACTCGTAGACT",binding result,[4],no binding
AREsc scrambled (dsDNA) DNA 1: AGTCTACGAGTGGGGTTCTTTTTTA DNA 2: TAAAAAAGAACCCCACTCGTAGACT,binding result,[5],no binding
